Assay: yeast display, Sf9 membrane polyspecificity reagent, FACS + sequencing; frameworks hold sequencing errors
Summary of the method: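 Galactose induction of a Saccharomyces cerevisiae BJ5465 synthetic nanobody display library ran 36–48 hours. The cells were then stained for 1 hour at 4 °C with 10% biotinylated, detergent-solubilized Sf9 membrane reagent, pulled down on streptavidin microbeads and FACS-sorted into low and high (top ~1%) gates on expression and reagent-binding fluorescence. Labels for polyreactivity follow the gate of origin.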

Row | Sequence | polyreactivity (PSR sort gate)
1 | QVLLQESGGGLVQAGGSLRLGCAASGTISPAYYMGRNHQAPGKEREFVAAITYGTNTYYADSVKGRFTISRDNAKNTVYLQMNSLKPEDTAVYYCSATAGYNGAHDYWGQGTQVTVSS | low polyreactivity
2 | QFQLGESVGGLVQAGGSLRLSCAGYGSIFLGKAMGWYREATGKEMEFVDAIRISGGSTYYADSVKGRFTISRDNAQYTVYIQMNILKPEDTAVYYCAKFGPRASLYRTGRYYWGQGTQVTVSS | high polyreactivity
3 | QVQLVESGGGLVQAGGSLRLSCAASGRTFTYNTMGWYRQAPGKERELVAAISSSGGSTYYADSVKGRFTISRDNAKNSVYLQMNSLKPEDTAVYYCAKRYFSSSRYYYWGQGTQVTVSS | high polyreactivity
4 | QVQLVESGGGLVQAGGSLRLSCAASGRILAGYTMGWYRQAPGKERELVAAISDRGGSTYYADSVKGRFTISRDNAKNTVYLQMNSLKPEDTAVYYCNAVVYSYALTPSYAGDYWGQGTQVTVSS | low polyreactivity
5 | QVQLVESGGGLVQAGGSLRLTCAASGFTFSQYVMGWYRQAPGKERELVAAISYRGGSTYYADSVKGRFTISRDKAKNTVYLQLNSLKPEDTAVYYCAAVAYSWHNRYDYWGQGTQVTVSS | high polyreactivity
6 | QVQLVESGGGLVQAGGSLRLSCAASGSTLRRHAMGWYRQAPGKERELVAAISSGGSTYYEDSVKGRFTISRDNAKNTVYLQMNSLKPEDTAVYYCAAPYSYRTWYPYGYWVQGTQVTVSS | high polyreactivity
7 | QVQLVESGGGLVQAGGSLRLSCAASGRIFYPYAMGWYRQAPGKERELVAAIRWGGGSTYADSVKGRFTISRDNAKNTVYLQMNSLKPEDTAVYYCAAKSYPYYGYPGAYDYWGQGTQVTVSS | low polyreactivity
8 | QVQLVESGGGLVQAGGSLRLSCAASGSMFVVYAMGWYRQGPGKERELVAAISWGIGSTYYADSVKGRFTISRDNAKNTVYLQMNSLKPEDTADYYCAADTDIVLYDYWGQGTQVTVSS | low polyreactivity
9 | QVQRVESGGGLVQAGGSLRLTCAASGRTFPGYAMGCYRQAPGKERELVAGISYRGGSTYYADSVKGRFTISRDNANNTVYLQMNSLKPEDSAVYYCALDYSRHKGDYWGQGTQVTVSS | low polyreactivity
10 | QVQLVESGGGLVQAGGSLRLSCAASGRTFVGNAMGWYRQAPGKERELVADITWSGDITYYADSVKGRFTISRDNAKNTVYLQMHSLKPEDTAVYYCAADYHRRRTDYDYWGQGTQVTVSS | low polyreactivity
11 | QVQLVESGGGLVQAGGSLRLSCAASGFTFASNAMGWYRQAPGKERELVAGISRTGTTTYYADSVKGRFTISRDNAKNTVYLQMNSLKPEDTAVYYCAKGSNSYLRYHYTYPYDYWGQGTQVTVSS | high polyreactivity
12 | QVQIVESGGGLVQAGGSLRLTCAASGSIFPDYAMGWYRQAPGKERELVASISWDGGSTYYADSVKGRFTISRDNAKNTVYLQMNSLKPEDTAVYYCATELLVGGGFTVDYWGQGTQVTVSS | low polyreactivity
13 | QVQLVESGGGLVQAGGSLRLSCAASGSTFTPYAMGWHRQAPGKERELVAAITIRGGSTYYADSVKGRFTISRDNAKNTVYLQMYSLKPEDTAVYYCAREYIFSVYDYSTSYYYWGQGTQVTVSS | low polyreactivity
14 | QVQLVESGGGLVQAGGRLRLSCAASGRIFVYYMGWNIQAPGKERELVAAISFGGGSTYYADSVKGRFTISRDNAKNSVYLQMYSLKPEDTAVYYCNADGDDLDWNYYLVQYDYWGQGTQVTVSS | low polyreactivity
15 | QVQLVESGGGLVQAGGSLRLSCAASGRTFVPYAMGWYRQAPGKERELVAAISSGGDTNYADSVKGRFTISRDNAKNTVYLQMNSLKPEDTAVYYCAVGGAGSDDYLGQGTQVTVSS | low polyreactivity
16 | QVQLVESGGGLVQAGGSLRLSCAASGFIFRYYAMGWYIQAPGKERELVAAITISGTRTYYADSVKGRFTISRDNAKNTVYLQMNSLKPEDTAVYYCAAYTSVRPKLDYWGQGTQVTVSS | high polyreactivity
17 | QVQLVESGGGLVQAGGSLRLSCAASGFIFIANGMGWNSQAPGKERALVAAITSGGGNTYYADSVKGRFTISRDNAKNTVYLQMNSLKPEDTAVYYCNAPSYGKFDYWGQGTQVTVSS | high polyreactivity
18 | QVQLVESGGGLVQAGGSLRLSCAASGFTFRYYAMGWYRQAPGKERELVAAIDWSGGSTYYADSVKGRFTISRDNAKNTVYLQMNSLKPEDTAVYYCNAVLVPREYYSWGQGTQVTVSS | low polyreactivity
19 | QVQLVESGGGLVQAGGSLRLSCAASGSTFQLYAMGWYRQAPGKESELVASISWSGGSTYYADSVKGRFTISRDNAKNTVYLQMNSLKPEDTAVYYCAADSRLYLRDDYWGQGTQVTVSS | low polyreactivity
20 | QVQLVESGGGLVQAGGSLRLSCAASGSNIFQYDMGWYRQAPGKERELVAAITISGGSTYYADSVKGRFTISRDNAKNTVYLQLNILKPEDTAVYYCNADYEWYLGGYDYWGQGTQVTVSS | high polyreactivity
21 | QVQLVESGGGLVQAGGSLRLSCAASGRTFKGYTMGWYRQAPGKERELVAAITRSGGGTYYADSVKGRFTISRDNAKNTVYLQMNSLKPEDTAVYYCAAYNGSRRQEFDYWGQGTQVTVSS | high polyreactivity
22 | QVQLVESGGRLVQAGGSLRLSCAASGFTFPNYAMGWYRQAPGKERELVAAISWSGTSTYYADSVKGRFTISRDNAKNTVYLQMNSLKPEDTAVYDCAAKYQRGGYYESYWLRTGYYWGQGTQVTVSS | high polyreactivity

Row | Sequence | polyreactivity (PSR sort gate)
23 | QVQLVESGGGLVQAGGSLRLSCAASGSIFSHNAMGGYRQAPGKERELVASITGSGGSTYYAASVKGRFTISRDNAKNTVYLQMNSLKPEDTAVYYCAATYYPDVRGMDYWGQGTQVTVSS | low polyreactivity
24 | QVQLVESGGGLVQAGGSLRISCAASGIIFDTNAMGWYRQAPGKERELVATITQRGGTTYYADSVKGRFTISRDNAKNTVYLQMNSLKPEDTAVYYCAKDYWFGYEYWGQGTQVTVSS | low polyreactivity
25 | QVQLVESGGGLVQAGGSLRLSCAASGRIFGYYTMGWYRQAPGKERELVAAINGRGTSTYYADSVKGRFTISRDNAKNTVYLQMNSLKPEDTAVYYCAARYTRTVGYDYWGQGTQVTVSS | high polyreactivity
26 | QVQLVESGGGLVQAGGSLRLSCADSGSTFWPYAMGWYRQAPGKESEVVAAISSSGGSTYYADSVQGRFTISRDNAKNTVYLQMNSLKPEDTAVYYCNKDYHRPFGGGSKGDYWGQRTQVTVSS | low polyreactivity
27 | QVQLVESGGGLVQAGGSLRLSCAASGRIIKFYAMGWYRQAPGKERELVAVIRSGTRTKYADSVKGRFTISRDNAKNTVYLQMNSLKPVDTAVYYCIRYFSEALLHGSSYNRYYYWGQGTQVTVSS | low polyreactivity
28 | QVHLVESGGGLDQAGGSLRLSSAASGSIFDKYAMVWYRQAPGKERELVAAITSGGRTYYADSVKGRFTISRDNAKNTVYLQMNSLKPEDTAVYYCAAGARRSYYPSQYYYWGQGTQVTVSS | low polyreactivity
29 | QVQLVESGGGLVQAGGSLRLSCAASGNNFYVYAMGWYRQATGKERELVAAIRWSGGSTYYADSVKGRFTISRDNGKNTVYLQMNSLKPEDTAVYYCAADYYLYEYEYWGQGTQVTVSS | high polyreactivity
30 | QVQLVESGGGLVLAGGSLRLSCAASGIIFYYYTMGWYRQAPGKERELVAWSGGNTNYADSVKGRFTISRDNAKNTVYLQMNSLIPEDSAVYYCNALAIWSDDWDQWISYADDYWGQGTQVTVSS | low polyreactivity
31 | QVQLVESGGGLVQAGGSLRLSCAASGSTSSYNAMGWYRQAPGKERELVAAINSGDNTYYADSVKGRFTISRDNAKNTVYLQMNSLKPDDTAVYYCNKVTRNFNYDYWGQGTQVTVSS | low polyreactivity
32 | QVQLVESGGGLLQAGGSLRLSCAASGSIFPQYAMGWYRPAPGKERELVAAITWSGSRTRYADSVKGRFTISRDNAKNTVYLQMNSLKPEDTAVYYCNAYWGRSGYAGGYWGQGTQVTVSS | high polyreactivity
33 | QVQLVESGGGLVQAGGSLRLSCAASGRTFRLNGMGWYRQAPGKERELVAAITWSGGRTDYADSVKGRFTISRDNAKNTVYLQMNSLKPEDTAVYYCAAGKSSYGKPKYYYWGQGTQVTVSS | high polyreactivity
34 | QVQLVESGGGLVQAGGSLRLSCAASGIILYTYAMGWYRQAPGKEREFVAGIRWSGSSTYYADSVKGRFTISRDNAKNTVYLQMNSLKPEDTAVYYCATGQPYGPLYSLGYGYWGQGTQVTVSS | high polyreactivity
35 | QVQLVESGGGLVQAGGSLRLSCAPSRYIFYPYAMGWYRQAPGKEREFVATISYRGGSTYYADSVKGRFTISRDNAKNTVYLQMNSLKPEDTAVYYCAAREPWYYGYGDYWGHGTQVTVSS | high polyreactivity
36 | QVQLVESGGGLVQAGGSLRLSCAASGRTFRKYGMGWYRPAPGTERELVAAITRSGGSTYYADSVKGRFTISRDNAKNTVYLQMNCLKPEDTSVYYCARSPVVVGSFLSYDYLGQGTQVTVSS | high polyreactivity
37 | QVQLVESGGGLVHAGGSLRLSCAASGRIFYYYTKGWYRQEPGKERELVAAISSGGSTNYADSVKGRFTISRDNAKNTVYLQMNSLKPEHTAVYYWARYGGYWSLKYDYWGQGTQVTVSS | high polyreactivity
38 | QVQLVESGGGLVQAGGSLRLSCAASGFTFYIYAMGWYRQAPGKERELVAAITGSGGRTYYADSVKGRFTISRDTAKNTVYLQMNSLKPEDTAVYYCAADKYRRGLAGAVARVNYWGQGTQVTVSS | high polyreactivity
39 | QVQLVESGGGLVQAGGSLRLSCAASGITFEVYAMGWYRQAPGKERELVAVITSVGSTNYADSVKGRFTISRDNAKNTVYLQMNSLKPEDTAVYFCAAEKWTVRRFNPYTYYRFDYWGHGTQVTVSS | low polyreactivity
40 | QVQLVESGGGLVQAGGSIRLSCAASGFTFAKYSMGWYRQAPVKERELVATITRGGNTYYADSVKGRFTISRDNAKNTVYLQMNSLKPEDTAVYYCAASWYRFSQYKYYYWGQGTKVTVSS | high polyreactivity
41 | QVQLVESGGGLVQAGGSLRLSCAASGRTFRYYAMGWYRQAPGKERELVAAITSGGSTYYADSVKGRFTISRDNAKNTVYLQMNSLKPEDTAVYYCNKDFTRTWTRHGDDYWGQGTQVTVSS | high polyreactivity
42 | QVQLVESVGGLVQAGGSLRLSCAASGSIFRSYAMGWYRQAPGKERELVAAISWSGASTYYADSVKGRFTISRDNAKNTVYLQMNSLKPEDTAVYYCAARPRYWRWYSGDYWGQGTQVTVSS | high polyreactivity
43 | QVQLVESGGGLVQAGGSLRLSCAASGRIFYIYAKGWYRPAPGKERELVAASTNGGSTNYAHSVKGRFTISRDNAKNTVYLQMNSLKPEDTEVYYCATDYVGYSFGMYYWGEGTQVTVSS | low polyreactivity

Source: the nanobody polyreactivity screen of Harvey et al. (2022)
